Drawing on publication PMC3100782 (Biochemistry, 2011), this text covers Kd for two molecules.

Non-standard residues stand in square brackets, D forms with d. pS = N[C@@H](COP(=O)(O)O)C(=O)O

For test [1], the target named is fluorescent BACH1-derived peptide (Fluorescein-GGSRSTpSPTFNK-NH2). The test is described as follows: fluorescence polarisation.
The target of test [2] is wild-type BRCA1 BRCT domain (human, UniProt P38398). The test is described as follows: fluorescence polarisation.

With “BRCA1 BRCT domain R1699W variant (from UniProt P38398) (domain or fragment)”, the Kd in test [1] was > 200 µM.

Consider Fluorescein-GGSRST[pS]PTFNK-NH2 [fluorescent BACH1-derived peptide (Fluorescein-GGSRSTpSPTFNK-NH2)], for which binding in test [2] was characterised by a dissociation constant (Kd) of 1.2 ± 0.1 µM.
